A short description of the data set: soluble fraction after stress (log2 fold change); higher = more stays soluble; pooled small domains, quantitative proteomics. Conditions: stress: 75 degC.
On to “HMSLAATLSPREIDTVRLIAVGSSNKEIARQLGIAETTVKIHVQHILRKLNLTSRVQVAVFANAEGII”, for which the “soluble fraction (log2)” value is -0.931. To “HMSLAISGRNQLHGIIEEVRSDGLLSQIYLRVGDQVLTAVITRDAVAELKLKRGDTAVAIMKSTEVMIARE” belongs 0.38. For the sequence “HMSLDLERAVALLSLPRPVGNHPEDGELVEAGIGRYGPYVKHGSKYANLPDADEVFTIGMNRAVEVLAAK”, the “soluble fraction (log2)” value was -0.109. To “HMSLDTASDKELLGLIVSEPIATRVLDAFRTLDATLFRTTPAELAAAAGVSSEHAQKIKAVAEIAARMLKP” belongs -0.343.

As for “HMSLEDYVIIKNKTVKVYETEFDGAPVVTSSSVGQKLILVEYNDNFAKILYRAKDGLDYVGYIKRKDVYVR”, the “soluble fraction (log2)” value was -2.55. With “HMSLLLTPREASVWASEYLGKKVTSNNIIYLLNYGKIANHSTDLKENLIDKNELKIYYDSTIKSQKH”, the “soluble fraction (log2)” value is -0.755.

As for “HMSLLQDRQRHEALAALGYYRGSVSAAWGAASVEALKAAQAALGVEVDGKWGPKTEDVIQAALGT”, the “soluble fraction (log2)” value was -0.272.

In the case of “HMSLLQTRQRHEALAALGFFKGDVAAEWSAASTEALRAAQASLGIRVDGKWGPQTEDAIGKALAERQG”, the “soluble fraction (log2)” value was found to be 0.0108. On to “HMSLLTIDELSQATGVSVRTLRYYVSSGVLDKPTGETRNARYGTHHLDQVRNIKKLQEEGLTLNRILEIKK”, for which the “soluble fraction (log2)” value is -2.14. Turning to “HMSLNHDIWVQELKEKRSGYGISQSRLAIAAGMTRQYLSDIETGKVLPSAERKAAITEALERFNPD”, the “soluble fraction (log2)” value is -0.348. Take “HMSLNNAHNTIFPRIIELMEMKQLENVLLIGGGIIPRKDIESLESSGVTKLYGPGTPVKETIEFITNWVK”: the “soluble fraction (log2)” value is -0.216. With “HMSLPKVLVPTDITVSQLAKYLEVDAIAIVKKLFGLGVVASLNQRLENEQMQLLGQEFGKDIIFTEN”, the “soluble fraction (log2)” value is -1.39.

In the case of “HMSLPTSDWKRALSLFDEALSLPPDARDAWLAHTIAREPAVSPLLQKLLGAHRRVETNDILATLPR”, the “soluble fraction (log2)” value was -0.534.

Turning to “HMSLQNTMANFAGGVLVLFLKPFKAGDYIVTKDGEGTVASIGLVYTTLLTIENKRIVIPNSSISNSPITN”, the “soluble fraction (log2)” value is 0.159. As for “HMSLRGEKTYDEAHQKLIKSAVELFKNPLVSPEKITVSQIAKHAGVSVATAYNHFPENKLDIYGSIF”, the “soluble fraction (log2)” value was -0.203.

As to “HMSLRVIEIFGTPQQMSARISLMDGSVTDVKVGQSIPGTSYKVASITGNGVWIQNGTAVSYTHL”, the “soluble fraction (log2)” value is -2.41. Take “HMSLSDADVERLLEVAIDIESLEEREGLYYQANESEPYSGWGKLMYDSGQVERLVPYKDGRWEGLWTIW”: the “soluble fraction (log2)” value is -1.07. Consider “HMSLSISSLVFFRKNAGLTQADIATAMSITQSAVARLEKRLLSDSDVTLKTLERYAEAVGIRMHVDFEP”, for which the “soluble fraction (log2)” value is 0.01.

Turning to “HMSLSKEEFETISKQVLELAGAGPIPVKELLQKMERTSKEKAWKVIEFLQAEDKIVPDATGRIQL”, the “soluble fraction (log2)” value is -0.727.

As to “HMSLSKQETEFLTTFSASGKRVFTYQQATDYWQSKVAATNVLGRLVRKGWLQRLERGLYMIIPLEAGPERF”, the “soluble fraction (log2)” value was -1.71. As for “HMSLSPAATRSRGYPSVLLTMKAPERLVSAAGPDRRAYLVGTDPLVIELPGVKGLYKVDPDQIVFE”, the “soluble fraction (log2)” value was -0.0024.

Consider “HMSLTEEQVDSGLKEIRLALLEADVALPVVKNFITNIKPKAIGQEIIRSTSPGQMIVKIVYDELVSIL”, for which the “soluble fraction (log2)” value was -0.066.

Take “HMSLTEESAKSLIGLTENEAVKVAAERGWTVRVAMRDGEAFMLTQDYSENRVNLTVMKTLVTAVTI”: the “soluble fraction (log2)” value is -3.32. In the case of “HMSLTMPKLIGMHLFQAERTLNYYGFQYKVEGPDSASVVIDQYPKEGVTVDPHYPITLKIGPSA”, the “soluble fraction (log2)” value is -2.18. For the sequence “HMSLYGGYEIDIIKEEVVDAGIKLLRRRVIVADQRGISVYEGKPTFASDDQVLIKEGQYQIDKLG”, the “soluble fraction (log2)” value is -2.46. To “HMSMHVHTPNPDFKPSNTNALQEGQLVEHPKFGFGKVQKIETEGLNKKASIQFEHFGEKTLLLSFAKLRII” belongs -1.47.

As for “HMSMLGTEQRVLVLGPARKGEGFLMARTDNNRIVNFEGPLSLVDTMVRVKVTDVYPHSLGGQLL”, the “soluble fraction (log2)” value is -1.51. As for “HMSMPDERMLTSWMMARVKAAGKTMTRDAWNEFFERSNDSMDHMDMEMEKLLSYVYDKDGITLEDVEA”, the figure is -0.223. As for “HMSMQIILLDKVVNLGGLGDVVKVKDGYARNYLIPQGKAKRANTANLAEFEARRVELERLAAEQLAQAQA”, the “soluble fraction (log2)” value is -0.0666.

Turning to “HMSMRIDTNTLNYYVQNAQISLSVLRTKINNLDQFLSGEKQPTFNQLSEIAKKINVPTGLLLLNKS”, the “soluble fraction (log2)” value is -2.17.

Turning to “HMSMSKISNLLEIMMIIQYKGLTTASELAQSLGVDKKTVYRYINSLSKANIPIYTKKGRYGGFYIDKNF”, the “soluble fraction (log2)” value is -1.29. Consider “HMSMSTVGERIKKKRKNLNFTQQELAAKLNISAQAVSKWENGVALPDLGLMPKLAQVLESTVDGLLGYQGA”, for which the “soluble fraction (log2)” value was -0.756. As for “HMSMTLSVLDDVRGLSESRRKQLFHSFGSIKKLREQSKETLMSIPYLPEKVALELYDKLHEE”, the figure is -0.243; as for “HMSMVGSVNKQGRPFALLRVDNLLYQVKVGDYLGQNYGRITQIDETQIALREIVQDAAGEWIERPGVLQL”, 0.294. Consider “HMSNATELVYDDGRKLLISYETLVGGYHPDLGWIRTAKTYSISTDKHIRNYFNNVTNPRVVGEDILETLKI”, for which the “soluble fraction (log2)” value stood at 0.109.

Regarding “HMSNDRSYLARLQDYYAEHRALPSYASIGALLGLRSKSSVAALVARLKLAGFVESTPDRRLAPTRRFF”, the “soluble fraction (log2)” value was -4.01. As for “HMSNEWIEISAKTVDDAINEGLIRLGTTTDKMDVEVLEKESAGFLGFIGKHDAKIRVRFKEV”, the “soluble fraction (log2)” value is -0.0738.

In the case of “HMSNGYVTAKTTVNVRKSASESGERLGVIYQGDKLELVMNQADGWTKVKYKGQTAYVKSEFM”, the “soluble fraction (log2)” value is -1.27. On to “HMSNHYETLGVPRDASQEDIKRAYRRLARKLHPDVAGPGKAEEFKAVNEAYAVLSDEESRRMYDLGGDDAL”, for which the “soluble fraction (log2)” value is 0.157. As to “HMSNIQLVENLYRLRKAHHYTQQEISDLLNISRQAYSNYETSKRTPDLDSLMRLADIYGVSLDQLVNHP”, the “soluble fraction (log2)” value was -1.93. As for “HMSNLENSLNESLSLLKSNKYNEALEILKKIEIEDSRVFFLLGTIYSVMKNINLGEEFLIKASK”, the figure is -1.64; as for “HMSNLGLQIVRTLTDAGKGVVFITHKLKEALTIADRINVLRRGKVVGDADPKTASESQIAEMMVGRPVQL”, -0.0755. As for “HMSNMWVWSKLSGIQWMDAWEDRFHGNPNTVITRLKTNKTVRVEVYTETEQEALDIKKLFGGSIRKLV”, the figure is -3.09; as for “HMSNRFIQFRQRAIDWLNSDRDFNAGILLLEESGFKPGVVAKLKRHGVNGPEAKKRLKFLINELVKAWA”, -1.2; as for “HMSNVKVYPNPTSGKLTIDAENYKGVEVYDTSGRLIVKSELRTIDLEEQSKGLYLLKVNANGTTQEFKVFK”, -0.0433. “HMSNYLKSVEVFDPITNKWSYVSAMKVRRGYVAVVATMDRLYAIGGYDGENYLSTVEMYNPDTN”: the “soluble fraction (log2)” value stood at 0.108. As for “HMSPAVSLITGKLGAETYYKQGLKKAKEKDYEGALDDLIKAYEFFPDKKIKTQVDKLASFLGKPPIL”, the figure is -0.259; as for “HMSPIKAGDLVKITGTKYYRGQTIPSWVKAKNWFVHSVSGDRAVINKSEDGKNAIMSPVKVSNLALVT”, 0.0902. To “HMSPILTPDQATKAYGKDGVLYIHSNKERTIYIYDVTGRTVRILEAVEGENQINGLEKGIYFLEGQKVAV” belongs -1.36; to “HMSPLQLGNYNTLRITRFTDHGAYLDGGDVGEILMPKTYVLPEMKPGDEVRVFVYLDQEERLVGTTET”, -0.622.

Values taken from the domain aggregation screens of Martell et al. (2025).
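Further: 20 min heating vs room temperature control held 20 min.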
